Measurements taken from CN114573691A (EIGHT HOSPITALS IN AFFILIATED CITY OF GUANGZHOU MEDICAL; …, dated 2022).

Biological target: 新冠病毒SARS-CoV-2原始毒株(WT)S1抗原 (SARS-CoV-2, UniProt P0DTC2 16-685)

B1: 中和抗体YB13-208 (antibody, V domains shown)
V domain 1: QITLKESGPTLVKPTQTLTLTCTFSGLSLSTSGVSVGWIRQPPGKAPEWLALIYWDDDKRYSPSLTSRLSITKDTSKNQVVLTMTNMDPVDTATYYCAHPRYYGDSSGYYWIWGQGTMVTVSS
V domain 2: SYELTQPPSVSVSPGQTARITCSGDALPKQYAYWYQQKPGQAPVVVMYKTSERPSGIPERFSGSSSGTTVTLTISGVQAEDEADYYCQSADSSGFYVFGTGTQVTVL
  Kd: 82 pM

B2: 中和抗体YB9-258 (antibody, V domains shown)
VH: EVQLVESGGGLIQPGGSLRLSCAASGLTVSSNYMHWVRQAPGKGLEWVSVLYAGGSAFYADSVKGRFTISRNNSKNTLYLQMNSLRAEDTAIYYCARGLGDYLDSWGQGTLVTVSS
VL: DIQMTQSPSSVSASVGDRVTITCRASQGIGSWLAWYQQKPGKAPQLLIYAASTLQSGVPPRFSGSGSGTDFTLTITSLQPEDFASYYCQQANSVLALTFGGGTKVEIK
  Kd: 71.7 pM
